Experimental data published in the supplement of paper PMC9170038.

Tested on: K4 kissing-loop RNA reporter
Test: apparent KD of K4 kissing-loop reporter; higher = weaker reporter binding
Conditions: Eterna round: R107
Procedure: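 RNA-MaP round R107: designed RNA switches with theophylline, tryptophan, arginine or FMN aptamers are transcribed on-chip within common flanks. They are titrated with a labelled K4 kissing-loop RNA reporter in RNA-MaP buffer (100 mM Tris pH 7.5, 80 mM KCl, 4 mM MgCl2), without ligand or with the indicated ligand. Median apparent KD per design.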

[1] = input ligand: theophylline 20 uM
[2] = input ligand: tryptophan 2.4 mM
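Also: bound reporter read as fluorescence of individual clusters on recovered sequencing chips by microscopy, with normalized cluster intensities fitted with a binding model.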

Row | Sequence | apparent KD of K4 kissing-loop reporter (input ligand: FMN 200 uM) | apparent KD of K4 kissing-loop reporter (input ligand: arginine 13.2 mM) | apparent KD of K4 kissing-loop reporter (input ligand: none) | apparent KD of K4 kissing-loop reporter [1] | apparent KD of K4 kissing-loop reporter [2]
1 | UUAGUCUAGAGAGGAUAUCAGUGAUGUUGAUAUCAAGAUCAUAGAUAGAAUUCUAUCUAUGAUCAAUGAGAAGGCUCUAGACAUU [AK1 Exc FMN B] | 746 nM | 141 nM | 161 nM | 155 nM | 163 nM
2 | GUAGCUUGGCUAGGAUAUUAGCGUAGGAGUGAUGUUCCGACUAGCGAAAGCUAGUCUCACGCUAGUUAAGAAGGAGCCAAGCUAC | 263 nM | 172 nM | 175 nM | 181 nM | 174 nM
3 | AGUGAUAUAUGAGGAUAUGGGAUAGUUAAUGAGUUAGUUUUAGUGUUGUUUGGUUAGUGAUGUUAUUUAGAAGGCGUGAGUGAUG [tptymullin] | 107 nM | 74.3 nM | 76.7 nM | 106 nM | 74.4 nM
4 | UGGAGUUGACGAAAAGUCAACUCCCGAGAAGGAGCGGACGAAAGUCCAGGUAGGUCGCUCGCUACCAGUGAUGUUGGUACUUUAA | 147 nM | 189 nM | 174 nM | 219 nM | 147 nM
5 | AAGUGUGUGGCGGCCGCCACUAGUAUCCAGUGAUGUUGGAGAUAUCACGUAAGUGAUAUCCUACAUAGGACCGGGCCAUAUAGAA [Same State - Tryptophan B (Freestyle 20)] | 392 nM | 391 nM | 337 nM | 540 nM | 510 nM
6 | CGUGGUGCCAAAGGAUAUCAUGCUAACGCGGUUGAGUGAUGUUCGACCCGAGAUAAGAGUGGGCAUUGAGAAGGUUGCGCAGAAG [theeternabot_sameState_KL_FMN_B_10] | 149 nM | 125 nM | 139 nM | 124 nM | 145 nM
7 | AACUUUUAAUGAAUUACAUUUUAUUUAUCUCGAGGACCGGUACGGCCGCCACUCGUACUAUAGUGAUGUUAUAGAUAAGUCCUAA [JR_ExcTryptoA_Sub019] | 149 nM | 212 nM | 179 nM | 233 nM | 73.8 nM
8 | GCGCAUGUUAAAGGAUAUAGCAGGUGAUACAAGAAAGUGAGUGAUGUUUAUGUAGAUGAUGAUAUGUUAGAAGGUUAACAAAAGC [abcdefghijklmn] | 717 nM | 624 nM | 674 nM | 691 nM | 434 nM
9 | AAUAUACAUUAAUUAAUUAAAGGUUCAGAAGGAGCGUGAAUUAACACAGGUAGGUCGCUGAGCGAGUGAUGUUCGCUAUAUACUA [JR_ExcArginiA_Sub004] | 61.4 nM | 73.1 nM | 69.5 nM | 79.9 nM | 58.1 nM
10 | AUGAGGAACAGUGAUCCUACUCCAUGGGAAGGAGCGUAGGAUACUACAGGUAGGUCGCCCAGUGAUGUUGGGCGCGUGUUCUUGG [Ermaar] | 116 nM | 114 nM | 115 nM | 161 nM | 113 nM
11 | UGUCAUUGGUCUGAUACCAGCUGAUCGGAAACGAUCAUGCUGGAGUGAUGUUCCAGGAAAAGCCCUUGGCAGCAGACCGAUGACU [TheoBS 11 #SwitchBubble #StaticStem] | 474 nM | 248 nM | 121 nM | 405 nM | 195 nM
12 | AUAGGCAUAGCCCGAGUGAUGUUCGACGAUACCAGCCUCGAUAGAGGCCCUUGGCAGCGUAAAUGAUCAUGAAGCCAAGGAAUAA [whbob_Ex_Theo_A_th69] | 342 nM | 313 nM | 442 nM | 353 nM | 313 nM
13 | GCUAUGGUAGGAAGGAGCGCUUAAUUAUUAAUAAGAGUGAUGUUCGAUAAUAAAUAUUUAUAGCAGGUAGGUCGCCUACUAUAGC [KL-SSArg B22] | 155 nM | 168 nM | 174 nM | 243 nM | 104 nM
14 | GAGGUUUACGUAGGAUAUCGAUAAUGAGUAAAUGGAGUGAUGUUCCGAAAUUGAAUAAGAGAUGAGCGAGAAGGGCGGAUUAAGC [FMN B Same State; Euporia Solution] | 39.1 nM | 41.4 nM | 37.8 nM | 66.5 nM | 43.4 nM
15 | UCCUAGGCUCGAAAGAGCCUAGGAUGGACUCAGGAUAUCCGGAAACGGAGAAGGGAGUCACUAGUGAUGUUAGGGACUCCCUAAA | 87.5 nM | 79 nM | 101 nM | 70.3 nM | 87.5 nM
16 | ACAGUAGUGAUGUCUUUGAUAUUACUACUGCGAGGACCGGUACGGCCGCCACUCGCCCAUUUUUGGGUUGAGAGUGAUGUUCUCA [Skye_SS_TA2] | 594 nM | 345 nM | 474 nM | 482 nM | 588 nM

Row | Sequence | apparent KD of K4 kissing-loop reporter (input ligand: FMN 200 uM) | apparent KD of K4 kissing-loop reporter (input ligand: arginine 13.2 mM) | apparent KD of K4 kissing-loop reporter (input ligand: none) | apparent KD of K4 kissing-loop reporter [1] | apparent KD of K4 kissing-loop reporter [2]
17 | AUGAGGAACAGUGAUCCUAUUCCAUGGGAAGGAGCGUAGGAUACUACAGGUAGGUCGCCCAGUGAUGUUGGGCGCGUGUUCUUGG [Soririza] | 120 nM | 112 nM | 113 nM | 140 nM | 117 nM
18 | UAAUAGUAGACCAGGUCUACUAUUAGGGAUACCAGCCUCGGUCGAGGCCCUUGGCAGCCCAGCGGGUCCAGUGAUGUUGGAUGUC [Beoratri] | 400 nM | 284 nM | 371 nM | 207 nM | 342 nM
19 | AAAAUUAUCUGAAGGAGCGUGAAAUAAUAUUAAACAUAACAACCCAGUGAUGUUGGGUUAUCACAGGUAGGUCGCAGAUGUAGAA [Same State Arginie B GF 25] | 106 nM | 113 nM | 108 nM | 115 nM | 90.8 nM
20 | GCUAUGGUAGGAAGGAGCGCUACUUUAUUUUUACGAGUGAUGUUCGGUAGUAGAGUGUUAAAGCAGGUAGGUCGCCUACUAUAGC [Arginine B K4 18] | 217 nM | 132 nM | 140 nM | 172 nM | 146 nM
21 | AAAAUAAUCCAGUGAUGUUGGUAUCCAGAUACCAGCGACGAAAGUCGCCCUUGGCAGCUGUGGACGUACAAAAUAAGUACGUCCU [#OpenEnded 9 #StaticStem #K4Early] | 502 nM | 386 nM | 535 nM | 842 nM | 630 nM
22 | UACUAUAGUGAUGUUAUAGAUAAACCAGAUACCAGUGUAACAUAACACCCUUGGCAGCUGAUGAGGGAACAUAUGAAAACAUAUG [AstroSTH-A#6newdesignED4.78] | 254 nM | 209 nM | 256 nM | 215 nM | 222 nM
23 | ACAGAUGCUAGUGAUACCAGACUAGCACUACGUAAUAUGUCAAGUGAUGUUUGACAACUAGUCCCUUGGCAGCGCGAUACGUCUG [Theo B SS t2] | 297 nM | 353 nM | 295 nM | 305 nM | 261 nM
24 | GCCGUAGAUUGAAGGAGCGGACAGAUACGGGUAUCCAGUGAUGUUGGAAGGUAGCUACUAGUCCAGGUAGGUCGCAAUCUACGGC | 283 nM | 111 nM | 304 nM | 286 nM | 164 nM
25 | AGUGAUGUAUGGCGGUUGGUCACUUAGGAUCAGGAUAUAUAAACAAAUAGAAGGGAUGGCGGAGUGAUGUUCCGCCGGCCGCCAU [FMN A Exl V2] | 173 nM | 130 nM | 177 nM | 191 nM | 170 nM
26 | UGUGAUGUGUAGUGUUAUGUUUUGAGGGAUACCAGAGUCUUUUUAUUCCCUUGGCAGCUUGAGUGAUGUUUGAUGCUGUUGUUGU [dvccmullin] | 463 nM | 342 nM | 412 nM | 431 nM | 339 nM
27 | UGUUAUGUAUCAGGAUAUUAGUGAUGUUUGUUUAUGUUAGUGAUGUUGAUAUUUGUUUUAUGUAUUUAAGAAGGGAUUGUGAUGU [xexxmullin] | 74.1 nM | 23.1 nM | 55.4 nM | 35.9 nM | 57.8 nM
28 | UUCAGGUGUUCGGCCGCCACUCCAGUGAUGUUGGAGUGGCUUCACAAGGGCCAGGACAAUGUAAGGAGGACCGGGAAUAUCUCAG [Onisle] | 97.9 nM | 96.1 nM | 132 nM | 77.3 nM | 111 nM
29 | CCCAGUGAUGUUGGGAGUAGCCACAGGGAAGGAGCGUGCUAGAGCACAGGUAGGUCGCCCACUGGGUCAGUGAUGUUGGUCGGGU [Same State Arginine A GF 28] | 275 nM | 178 nM | 186 nM | 361 nM | 208 nM
30 | ACCAUCAAAGAUGGCCAGGACUCCGCUGAUACCAGAGUGAAAACACUCCCUUGGCAGCAGGUGAGUGAUGUUCACAAGUCCUGGA [Omel KL Theo A SS B v5] | 1160 nM | 693 nM | 1860 nM | 981 nM | 857 nM
31 | UGACGCCUGUCGGCCGCCACUCACAGCAGCCAGUGAUGUUGGAUUGUAGCGGAGUGAUGUUUCGCGAGGACCGGGACUGCAGUUG [Same State Tryptophan B GF 13] | 259 nM | 249 nM | 260 nM | 321 nM | 250 nM
32 | GGAGUUACCUGGGAUACCAGUCGGAGUCCGAGAGCUCGGAGUGAUGUUCUGGGAUGUUUCGGCCCUUGGCAGCUCUGGGACUCCC [#2 Exclusion - Theophylline B Attempt #10 (HarryS)] | 220 nM | 181 nM | 241 nM | 249 nM | 198 nM
